In the nanobody polyreactivity screen of Harvey et al. (2022):

Assay: yeast display, Sf9 membrane polyspecificity reagent, FACS + sequencing; frameworks hold sequencing errors
Summary of the method: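 A synthetic nanobody library was expressed on Saccharomyces cerevisiae BJ5465 by galactose induction for 36–48 hours. The library was stained for 1 hour at 4 °C with 10% biotinylated, detergent-solubilized Sf9 membrane reagent and enriched with streptavidin microbeads before FACS. Low and high (top ~1%) gates were set on anti-HA fluorescence for expression and streptavidin fluorescence for reagent binding, and each polyreactivity label reflects the gate of origin.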

Sequence | polyreactivity (PSR sort gate)
QVQLVESGGGLFQAGGSLRLICAASGSTFLNNAMGWYRQAPGKERELVAAISYRGGSTYYADSVKGRFTISRDNAKNTVYLQMNSLKPEDTAVYYCAAEVTRFWWRSPYDYNYWGQGTQVTVSS | high polyreactivity
QVQLVESGGGLVQAGGSLRLSCAASGTFTVNTMGWYRQAPGKVRELVAAISTGDTTTYADSVKGRFTISRDNAKNTVYLQMNSLKPEDTAVYYCIVDIGVYAYESDYWGQGTQVTVSS | low polyreactivity
QVQLVESGGGLDQAGGSLRLSCAASGRIFGYYAMGWYRLAPGKERELVAGIRSVGSTNYADSVKGRFTISRDNAKNTVYLQMNSLKPEDTAVNYCASRLWHLSYAGQGGDYWGQGTQVTVSS | low polyreactivity
QVQLVESGGGLVQAGGSLRLSCAASGRIFVYNAMGWYRQAPGKERELVAAISKGGGSTYYADSVKGRFTISRDNAKNTVYLQMNSLKPEDTAVYYCAAVVSGRYWGKKITYDYWGQGTQVSVSS | high polyreactivity
QVQLVESGGGLVQAGGSLRLSCAASGRIFNYYAMGWYRQAPGKEREFVAAITRSGGRTYYADSVKGRFTISRDNAKNTVYLQMNSLKPEDPAVYYCAAGRYVWREYYYWGQGTQVTVSS | high polyreactivity
QFQLVESGGGLLQAGGSLRLSCAASGLTFNQKAMGWYTQAPGKDRELVAAISRRGGSTYYADSVKGRFTFSRENAKNTVYLQLNSLKPEDTAVYYCNTRGKSGLWWYYYWGQGTQVTVSS | high polyreactivity
KYYADSVKGRFTISRDNAKNTVYLQMNSLNPEDTAVYYCNAGYYISFNPYDYWGQGTQVTVSW | low polyreactivity
QFQLVESGGGLVQAGGSLRLSCAASGSTFPLYAMGWYRPAPGKERELVAAITSGGGNTYYADSVKGRFTISRDNAKNTVYLQMNSLKPEDTAVYSCAAVGGYKSYYSYEYDYWGQGTQVTVSS | low polyreactivity
QVQLQESGGGLVQAGGSLRLICSASGTNFTARFIGWYRQAPGKERELVATITDGGNTNHADSVKGRFTISRDNAKNTVFLQMNSLKPEDAAVYYCAAGEVDIDTLLYWGQGSQVTVSS | low polyreactivity
QVQLVESGGGLVQAGGSLRLSCAASGSSFRAYAMGWYRQAPGKERELVAVITYSGDRTYYADSVKGRFTISRDNAKNTVYLQMNSLKPEDTAVYYCAADLQYWHSYSYDDYYYWGQGTQVTVSS | low polyreactivity
QVQLVESCGGLVQAGGSLRLSCAGSGITIYSYAMGWYRQAPGKERELVAAITLTGGTTYYADSVKGRFTISRDNAKNTVYLQMNSLKPEDTAVYYCNADYGGGVDGTYKYYSEYDYWGQGTQVTVSS | low polyreactivity
QVQLVESGGGLVQAGGSLRLSCAASGFTWSYAMGWYRQAPGKERELVATISDGVSTNYADSVKGRFTISRDNAKNTVYLQMNSLKPEDTAVYYCAARYTSWGMGYWGQGTQVTVSS | low polyreactivity
QVQLVESGGGLVQAGGSLRLSCAASGFIFPYYAMGWYRQAPGKERELVAAISQSGGSTYYADSVKGRFTISRDNAKNTVYLQMNSLKPEDTAVYYCAKYIPSYHDGDYWGQGTQVTVSS | low polyreactivity
QVQLVESGGGLVQAGGSLRLSCAASGFILPYYTMGWYRQAPGKERELVAAITYSGASTFYADSVKGRFTISRDNAKNTVYLQMNSLKPEDTAVYYCAKEWSGWYESPLDDGDYDYWGQGTQVTVSS | low polyreactivity
QVQLVESGGGLVQAGGSLRLSCAASGYTFPDYAMGWYRQATGKERELVAAIRSGGGTNYADSVKGRFTISRDNAKNTVYLQMNSLKPEDTAVYYCAKEWAGGLYDYWGQGTQVTVSS | low polyreactivity
QVQLVESGGGLVQAGCSLRLSCAASGRIFNDYAMGWYRQAPGKERELVAGISRRGGSTSYADSVKGRFTISRDNAKNTDYLQMNSQKAEDTAVYYCNADYWYDYYSTEYDYWGQGTQVTVSS | low polyreactivity

Sequence | polyreactivity (PSR sort gate)
QVQLVDSGGGLVQAGGSLRLSCAASGSSVKTYAMGWYRQAPGKERELVASISYSGDTTYADSVKGRFTISRDNAKNSVYLQMNSLKPEDTAVYYCAAGWYYYYYSYQYWDYDYWGQGTQVTVSS | high polyreactivity
QVQLVESGGGLVQAGGSLRLSCAASGITFYYYAMGWYRQAPGKERELVAAISRSGGRTYYADSVKGRFTISRDNAKNTVYLQMNSLKPEDTAVYYCAAVRYQGGDSSIEYDYWGQGTQVTVSS | high polyreactivity
QVQLVESGGGLVQAGGSLRLSCAASGSIFYQYAMGWYRQAPGKERELVAAISQNGGRTYYADSVKGRFTISRDNAKNKVYLQMNRLKPEDTAVYYFAARHAPTRYGYWGQGTEVTVSS | high polyreactivity
QVQLVESGGGLVQAGGSLRLSCGASGSTFVAYDMGWYRQGPGKERELVAAISWSDATTYYADSVKGRFTISRDNAKNTVYLLMNSLNPEDTAVYYCAATRDTNNMDYWGQGTQVTVSS | low polyreactivity
QVQLVESGGGLVQAGGSLRISCAASGSTFKGYAMGWYRQSPGKERELVAAISRSGTRTYYADSVKVRFTISRDTAKNTVYLQMNSLNPEDTAVYSCNKDTGYIAHDNENGRDYWGQGTQVTVSS | low polyreactivity
QVQLVESGGGLVQAGGSLRLSCAASGSIFGRNAMGWSRQAPGNERELVARISYIGGSTYYADSVKARFTISRDNAKTTVYLQMNSLKPEDTAVYYCAKRYGFRYKRMDYWGQGTQVTVSS | low polyreactivity
QVQLVESGGGLVQAGGSLRLSCAASGITFYLYVMGWYRQAPGKERELVAAISSGGSTYYADSVKGRFTISRDNAKNTVYLQMNSLKPEDTAVYYCAADVARYLHYSYHEDYYWGQGTQVTVSS | low polyreactivity
QVQLVESGGGLVQAGGSLRLSCAASGRTFRRYTMGWYRQAPGKERELVATISSGGSTYADSVKGRFTISRDNAKNTVYLQMNSLKPEDTAVYYCAATAIYPSAWRMDYWGQGTQVTVSS | high polyreactivity
QVQLVESGGGLVQAGGSLRLSCAASGRTFGLYAMGWYRQAPGKERELVAAIDQSTGSTYYADSVKGRFTISRDNAKNTVYLQMNRLKPEDTAVYYCAAEEASTVRYYWYDYWGQGTQVTVSS | high polyreactivity
QVQLVESGGGLVQAGGSLRLSCAASGYTFWYYTMGWYRQATGKERELVATISSNGRRTYYADSVKGRFTISRDNAKNTVYLQMNSLYPEDTAVYYCAAVLYRSWVYTTHDYWGHGTQVTVSS | high polyreactivity
QVQLVESGGGLVQAGGSLRLSCAASGIIFYLYAMGWYRQAPGKERELVAAISRRGGSTYYADSVKGRFTISRDKAKNTVYLQMNSLKPEDTAVYYCAATIGTFGYGYWGQGTQVTVSS | high polyreactivity
QVQLVESGGGLVQAGGSLRLSCAASGSTFYVYAMGWYRQAPGKERELVAAITTGGSTYYADSVKGRFTISRDNAKNTVYLQMNSLKPEDTAVYYCAADDPDPYDVPSYDYWGHGTQVTVSS | low polyreactivity
QVQLVESGGGLVQAGGSLRLSCAASGITFRYYAMGWSRQAPGKERELVADITRSGGTTYYADSVKGRFTISRDNAKNTVYLQMNSLKPEDSAVYYCAVDLNWWGWGLLQYDYWGQGTQVTVSS | high polyreactivity
QVQLVDSGGGLVQAGGSLRLSCAASGRTISKYAMGWNRQAPVKERELVAAITGSGGSTHYADSVKGRFTISRDNAKNTVYLQMNSLKPEDSAVYYCAAVPRYQYGYWGQGTQVTVSS | low polyreactivity
QVQLVESGGGLVQAGGSLRLSCAASGFIFNSYGMGWYRQAPGKERELVAAITKSGGSTYYADSVKGRFTISRDNAKNTVYLQMNSLKPEDTAVYYCAARAYRYSVYRGDYWGQGTQVTVSS | high polyreactivity
QVQLVESGGGLVQAGGSLRLSCAASGSIFYSNTMGWYSQAPGKERELVAAISSSSGRTYYADSVKGRFTISRDNAKNTVYLQMNSLKPEDTAVYYCARRYGWGQGTQVTVSS | high polyreactivity
